B1: SLC25A39 (parent)
chain: LTSDLYAPMVAGALARLGTVTVIS
B2: KLHL12 (parent)
chain: LDYTADEDGVWYSVAPMNVRRGLA

Variants of: B1
Assay: protein stability index of a GFP-peptide fusion (GPS, HEK-293T) (PSI 1-6); higher = more stable
Settings: c terminus: a fixed tail appended
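Further: lentivirally expressed fusions sorted by FACS into six bins by GFP to DsRed ratio, PSI derived from sequencing read proportions per bin multiplied by bin number.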

Protein stability index of substitutions, site by site:
L1: T 1.75 | S 1.41 | I 1.96 | D 1.76 | A 3.53 | C 2.18 | V 1.88 | K 2.83 | H 2.01 | Q 1.84 | G 2.72 | P 1.62 | E 2.24 | N 2.77 | M 2.2
T2: D 2.1 | C 4.26 | K 1.57 | Y 4.43 | S 2.68 | G 3.56 | W 1.61 | H 2.88 | A 3.92 | N 2.52 | E 2.15 | M 3.56 | Q 2.49
S3: F 3.67 | R 2.83 | K 1.13 | G 3.59 | V 3.21 | L 3.13 | D 2.96 | H 2.4 | T 1.38 | A 2.75 | I 2.51 | M 2.73 | Y 2.41 | P 1.35 | Q 1.86 | N 1.56
D4: P 2.89 | Q 2.88 | T 2.84 | C 4.74 | W 3.9 | V 3.22 | S 2.07 | Y 5.3 | R 3.25
Y6: C 2.31 | S 1.34 | M 2.09 | P 1.98 | Q 2.01 | F 3.72 | T 1.82 | E 2 | A 2.37 | D 1.55 | N 1.34 | G 1.13 | R 1.47 | H 2.34
L5: M 2.95 | G 2.8 | T 1.48 | E 1.69 | I 1 | Y 3.05 | D 1.89 | C 3.99 | Q 1.65 | P 2.31 | A 2.14 | S 2.12 | H 1.34 | N 1.89 | K 3.21 | R 2.09

Variants of: B2
Assay: as above
Settings: c terminus: a fixed tail appended

Protein stability index, by site and new letter:
V19: M 1.52 | P 2.11 | G 1.95 | T 1.91 | C 1.7 | N 2.72 | A 1.93 | W 1.66 | K 2.65 | E 1.86 | I 2.42 | F 1.78 | D 2.32 | Y 1.78 | H 2.98 | S 2.62 | L 2.22 | R 2.61 | Q 2.49
M17: C 2.01 | A 2.45 | N 2.54 | P 2.58 | Y 1.86 | I 3.28 | E 2.59 | S 2.64 | T 2.48 | F 1.55 | R 3.34 | V 2.59 | K 2.71 | Q 2.46 | D 2.47 | H 2.41 | G 2.28 | L 1.74 | W 1.89
R20: Q 1.89 | S 2.31 | G 1.72 | N 1.74 | Y 1.97 | P 1.81 | M 2.4 | A 2.1 | W 2.05 | V 2.49 | F 1.7 | I 1.98 | H 1.75 | E 3.32 | T 2.69 | D 2.65 | C 1.54 | L 2.26 | K 1.89
G22: S 1.72 | T 2.31 | N 1.62 | M 1.95 | K 2.23 | Y 2.17 | D 1.79 | H 1.56 | F 1.51 | W 1.48 | V 1.35 | R 2.15 | A 1.5 | L 2 | Q 2.22 | E 2.17 | P 2.21 | C 2.27 | I 2.16
L23: I 1.74 | N 2.77 | C 1.93 | S 2.66 | H 2.28 | M 2.38 | E 2.41 | A 2.68 | Q 2.9 | V 1.79 | K 2 | P 2.35 | T 2.19 | F 1.83 | R 2.82 | D 2.46 | Y 1.99 | G 2.29 | W 1.37
A24: H 2.13 | P 2.24 | G 2.17 | E 1.87 | C 1.77 | D 1.82 | Q 2.03 | K 2.35 | I 1.88 | V 2.26 | Y 2.39 | R 1.97 | L 2.77 | W 2.46 | T 2.11 | M 1.75 | N 2.25 | F 2.2 | S 2.17
V14: C 2.5 | A 2.76 | Y 2.83 | L 1.82 | W 2 | N 2.83 | H 3.39 | P 2.63 | D 3.79 | G 2.83 | S 2.96 | I 1.67 | K 4.17 | E 3.61 | R 3.33 | M 2.33 | F 2.18 | T 3 | Q 3.31
W11: T 2.99 | Y 2.39 | R 2.8 | S 3.62 | V 3.62
P16: E 3.28 | A 2.33 | K 1.95 | V 1.85 | G 2.08 | I 1.79 | M 1.88 | N 2.24 | S 1.79 | Y 2.56 | L 2.41 | F 1.84 | T 2.62 | Q 2.16 | W 1.59 | D 3.07 | C 1.72 | R 2.25 | H 2.57
Y12: Q 3.61 | L 2.02 | I 1.89 | W 2.3 | H 3.24 | F 2.23 | N 3.45 | A 3.55 | V 2.32 | P 3.52 | R 3.37 | S 3.12 | K 3.63 | M 2.36 | E 4.04 | T 3.12 | G 2.84 | C 3.07 | D 3.74
S13: W 1.37 | K 2.29 | Q 2.06 | E 2.77 | C 1.97 | I 1.43 | D 3.34 | H 3.65 | Y 2.21 | V 2.28 | A 1.71 | N 2.13 | L 1.89 | P 2.57 | F 2.6 | G 2.69 | R 1.94 | M 1.92 | T 1.92
N18: C 1.35 | I 2.47 | L 1.97 | G 2.54 | M 1.46 | D 2.2 | A 1.92 | K 1.54 | V 2.35 | T 1.77 | H 1.95 | Y 2.24 | S 2.01 | F 2.19 | P 2.57 | Q 1.58 | E 1.83 | W 2.37
A15: V 1.76 | I 1.76 | C 1.74 | Y 2.04 | K 2.13 | T 2.04 | L 2.08 | H 1.7 | S 1.83 | M 1.76 | W 1.57 | E 2.29 | G 2.06 | R 2.19 | D 2.32 | N 2.33 | Q 2.24 | F 1.82 | P 2.76
R21: N 1.65 | M 1.32 | G 1.78 | H 1.75 | C 2.63 | Y 1.47 | L 2.93 | I 2.04 | W 1.71 | F 2.85 | D 1.88 | V 2.19 | T 2.72 | S 1.72 | P 1.8 | Q 1.71 | K 1.8 | E 2.21 | A 2.39

— the supplement of paper PMC10567573
